# Reference: article doi:10.1101/359695
# Columns and labels:
# [1] = biological target: reconstituted 26S proteasome (S. cerevisiae), all wild-type components (S. cerevisiae) (UniProt P33299)
# [2] = biological target: reconstituted 26S proteasome with Cy3-labeled base (Rpt1-I191AzF-Cy3) (S. cerevisiae) (UniProt P33299); test: FRET or BRET
"FRET amplitude of tail insertion, percent of that of the 35-residue tail [2] [%]",Substance,further results
–,ubiquitinated 5-FAM-titin-I27^V15P-35 (from UniProt P0CG63 1-76),"KM of multiple-turnover degradation (Michaelis-Menten, anisotropy of 5-FAM) [1]: 0.22 µM"
16,"ubiquitinated titin-I27^V15P-1 (1 AA tail), acceptor-labeled (from UniProt P0CG63 1-76)",–
25,"ubiquitinated titin-I27^V15P-11 (11 AA tail), acceptor-labeled (from UniProt P0CG63 1-76)",–
–,ubiquitinated titin-I27^V15P-35 modified with Cy5 on its unstructured tail (from UniProt P0CG63 1-76),time constant of tail insertion (FRET change) [2]: 1.6 s
